The values that follow come from paper PMC7173237.

The test deals with West Nile virus (Kunjin subtype, strain MRM61C) core (C) protein, trypsin-cleaved fragment Val23-Arg98 (Kunjin virus (strain MRM61C)). As to the kind of experiment: crystal structure.

Substance “West Nile virus (Kunjin subtype, strain MRM61C) core (C) protein, trypsin-cleaved fragment Val23-Arg98 (domain or fragment)” showed a stoichiometry N of 4.

As a reminder, the stoichiometry N is a count of units in the complex or per binding partner.
